Here are results for 13 molecules from paper PMC11574045, “A cofactor-induced repressive type of transcription factor condensation can be induced by synthetic peptides to suppress tumorigenesis” (The EMBO Journal, 2024).

The labels stand for the following.
B1: ATF3 (protein, UniProt P18847 1-181, looked up)
Cyclic AMP-dependent …: MMLQHPGQVSASEVSASAIVPCLSPPGSLVFEDFANLTPFVKEELRFAIQNKHLCHRMSSALESVTVSDRPLGVSITKAEVAPEEDERKKRRRERNKIAAAKCRNKKKEKTECLQKESEKLESVNAELKAQIEELKNEKQHLIYMLNLHRPTCIVRAQNGRTPEDERNLFIQQIKEGTLQS
B2: NFKBIA (protein, UniProt P25963 1-317, looked up)
NF-kappa-B inhibitor alpha: MFQAAERPQEWAMEGPRDGLKKERLLDDRHDSGLDSMKDEEYEQMVKELQEIRLEPQEVPRGSEPWKQQLTEDGDSFLHLAIIHEEKALTMEVIRQVKGDLAFLNFQNNLQQTPLHLAVITNQPEIAEALLGAGCDPELRDFRGNTPLHLACEQGCLASVGVLTQSCTTPHLHSILKATNYNGHTCLHLASIHGYLGIVELLVSLGADVNAQEPCNGRTALHLAVDLQNPDLVSLLLKCGADVNRVTYQGYSPYQLTWGRPSTRIQQQLGQLTLENLQMLPESEDEESYDTESEFTEFTEDELPYDDCVFGGQRLTL
B3: NKX2.5 (protein, UniProt P52952 1-324, looked up)
Homeobox protein Nkx-2.5: MFPSPALTPTPFSVKDILNLEQQQRSLAAAGELSARLEATLAPSSCMLAAFKPEAYAGPEAAAPGLPELRAELGRAPSPAKCASAFPAAPAFYPRAYSDPDPAKDPRAEKKELCALQKAVELEKTEADNAERPRARRRRKPRVLFSQAQVYELERRFKQQRYLSAPERDQLASVLKLTSTQVKIWFQNRRYKCKRQRQDQTLELVGLPPPPPPPARRIAVPVLVRDGKPCLGDSAPYAPAYGVGLNPYGYNAYPAYPGYGGAACSPGYSCTAAYPAGPSPAQPATAAANNNFVNFGVGDLNAVQSPGIPQSNSGVSTLHGIRAW
B4: ATF2/CRE-BP (protein, UniProt P15336 1-505, looked up)
Cyclic AMP-dependent …: MKFKLHVNSARQYKDLWNMSDDKPFLCTAPGCGQRFTNEDHLAVHKHKHEMTLKFGPARNDSVIVADQTPTPTRFLKNCEEVGLFNELASPFENEFKKASEDDIKKMPLDLSPLATPIIRSKIEEPSVVETTHQDSPLPHPESTTSDEKEVPLAQTAQPTSAIVRPASLQVPNVLLTSSDSSVIIQQAVPSPTSSTVITQAPSSNRPIVPVPGPFPLLLHLPNGQTMPVAIPASITSSNVHVPAAVPLVRPVTMVPSVPGIPGPSSPQPVQSEAKMRLKAALTQQHPPVTNGDTVKGHGSGLVRTQSEESRPQSLQQPATSTTETPASPAHTTPQTQSTSGRRRRAANEDPDEKRRKFLERNRAAASRCRQKRKVWVQSLEKKAEDLSSLNGQLQSEVTLLRNEVAQLKQLLLAHKDCPVTAMQKKSGYHTADKDDSSEDISVPSSPHTEAIQHSSVSTSNGVSSTSKAEAVATSVLTQMADQSTEPALSQIVMAPSSQSQPSGS
B5: NFKB2 (protein, UniProt Q00653 1-900, looked up)
Nuclear factor NF-kappa-B …: MESCYNPGLDGIIEYDDFKLNSSIVEPKEPAPETADGPYLVIVEQPKQRGFRFRYGCEGPSHGGLPGASSEKGRKTYPTVKICNYEGPAKIEVDLVTHSDPPRAHAHSLVGKQCSELGICAVSVGPKDMTAQFNNLGVLHVTKKNMMGTMIQKLQRQRLRSRPQGLTEAEQRELEQEAKELKKVMDLSIVRLRFSAFLRASDGSFSLPLKPVISQPIHDSKSPGASNLKISRMDKTAGSVRGGDEVYLLCDKVQKDDIEVRFYEDDENGWQAFGDFSPTDVHKQYAIVFRTPPYHKMKIERPVTVFLQLKRKRGGDVSDSKQFTYYPLVEDKEEVQRKRRKALPTFSQPFGGGSHMGGGSGGAAGGYGGAGGGGSLGFFPSSLAYSPYQSGAGPMGCYPGGGGGAQMAATVPSRDSGEEAAEPSAPSRTPQCEPQAPEMLQRAREYNARLFGLAQRSARALLDYGVTADARALLAGQRHLLTAQDENGDTPLHLAIIHGQTSVIEQIVYVIHHAQDLGVVNLTNHLHQTPLHLAVITGQTSVVSFLLRVGADPALLDRHGDSAMHLALRAGAGAPELLRALLQSGAPAVPQLLHMPDFEGLYPVHLAVRARSPECLDLLVDSGAEVEATERQGGRTALHLATEMEELGLVTHLVTKLRANVNARTFAGNTPLHLAAGLGYPTLTRLLLKAGADIHAENEEPLCPLPSPPTSDSDSDSEGPEKDTRSSFRGHTPLDLTCSTKVKTLLLNAAQNTMEPPLTPPSPAGPGLSLGDTALQNLEQLLDGPEAQGSWAELAERLGLRSLVDTYRQTTSPSGSLLRSYELAGGDLAGLLEALSDMGLEEGVRLLRGPETRDKLPSTAEVKEDSAYGSQSVEQEAEKLGPPPEPPGGLCHGHPQPQVH
B6: NFX1 (protein, UniProt Q12986 1-1120, looked up)
Transcriptional repressor …: MAEAPPVSGTFKFNTDAAEFIPQEKKNSGLNCGTQRRLDSNRIGRRNYSSPPPCHLSRQVPYDEISAVHQHSYHPSGSKPKSQQTSFQSSPCNKSPKSHGLQNQPWQKLRNEKHHIRVKKAQSLAEQTSDTAGLESSTRSESGTDLREHSPSESEKEVVGADPRGAKPKKATQFVYSYGRGPKVKGKLKCEWSNRTTPKPEDAGPESTKPVGVFHPDSSEASSRKGVLDGYGARRNEQRRYPQKRPPWEVEGARPRPGRNPPKQEGHRHTNAGHRNNMGPIPKDDLNERPAKSTCDSENLAVINKSSRRVDQEKCTVRRQDPQVVSPFSRGKQNHVLKNVETHTGSLIEQLTTEKYECMVCCELVRVTAPVWSCQSCYHVFHLNCIKKWARSPASQADGQSGWRCPACQNVSAHVPNTYTCFCGKVKNPEWSRNEIPHSCGEVCRKKQPGQDCPHSCNLLCHPGPCPPCPAFMTKTCECGRTRHTVRCGQAVSVHCSNPCENILNCGQHQCAELCHGGQCQPCQIILNQVCYCGSTSRDVLCGTDVGKSDGFGDFSCLKICGKDLKCGNHTCSQVCHPQPCQQCPRLPQLVRCCPCGQTPLSQLLELGSSSRKTCMDPVPSCGKVCGKPLPCGSLDFIHTCEKLCHEGDCGPCSRTSVISCRCSFRTKELPCTSLKSEDATFMCDKRCNKKRLCGRHKCNEICCVDKEHKCPLICGRKLRCGLHRCEEPCHRGNCQTCWQASFDELTCHCGASVIYPPVPCGTRPPECTQTCARVHECDHPVYHSCHSEEKCPPCTFLTQKWCMGKHEFRSNIPCHLVDISCGLPCSATLPCGMHKCQRLCHKGECLVDEPCKQPCTTPRADCGHPCMAPCHTSSPCPVTACKAKVELQCECGRRKEMVICSEASSTYQRIAAISMASKITDMQLGGSVEISKLITKKEVHQARLECDEECSALERKKRLAEAFHISEDSDPFNIRSSGSKFSDSLKEDARKDLKFVSDVEKEMETLVEAVNKGKNSKKSHSFPPMNRDHRRIIHDLAQVYGLESVSYDSEPKRNVVVTAIRGKSVCPPTTLTGVLEREMQARPPPPIPHHRHQSDKNPGSSNLQKITKEPIIDYFDVQD
B7: NFYB (protein, UniProt P25208 1-207, looked up)
Nuclear transcription factor …: MTMDGDSSTTDASQLGISADYIGGSHYVIQPHDDTEDSMNDHEDTNGSKESFREQDIYLPIANVARIMKNAIPQTGKIAKDAKECVQECVSEFISFITSEASERCHQEKRKTINGEDILFAMSTLGFDSYVEPLKLYLQKFREAMKGEKGIGGAVTATDGLSEELTEEAFTNQLPAGLITTDGQQQNVMVYTTSYQQISGVQQIQFS
B8: NF-YB (protein, UniProt P25208 1-207, looked up)
Nuclear transcription factor …: MTMDGDSSTTDASQLGISADYIGGSHYVIQPHDDTEDSMNDHEDTNGSKESFREQDIYLPIANVARIMKNAIPQTGKIAKDAKECVQECVSEFISFITSEASERCHQEKRKTINGEDILFAMSTLGFDSYVEPLKLYLQKFREAMKGEKGIGGAVTATDGLSEELTEEAFTNQLPAGLITTDGQQQNVMVYTTSYQQISGVQQIQFS
B9: NKX2-8 (protein, UniProt O15522 1-239, looked up)
Homeobox protein Nkx-2.8: MATSGRLSFTVRSLLDLPEQDAQHLPRREPEPRAPQPDPCAAWLDSERGHYPSSDESSLETSPPDSSQRPSARPASPGSDAEKRKKRRVLFSKAQTLELERRFRQQRYLSAPEREQLASLLRLTPTQVKIWFQNHRYKLKRARAPGAAESPDLAASAELHAAPGLLRRVVVPVLVRDGQPCGGGGGGEVGTAAAQEKCGAPPAAACPLPGYPAFGPGSALGLFPAYQHLASPALVSWNW
B10: NFKBIB (protein, UniProt Q15653 1-356, looked up)
NF-kappa-B inhibitor beta: MAGVACLGKAADADEWCDSGLGSLGPDAAAPGGPGLGAELGPGLSWAPLVFGYVTEDGDTALHLAVIHQHEPFLDFLLGFSAGTEYMDLQNDLGQTALHLAAILGETSTVEKLYAAGAGLCVAERRGHTALHLACRVGAHACARALLQPRPRRPREAPDTYLAQGPDRTPDTNHTPVALYPDSDLEKEEEESEEDWKLQLEAENYEGHTPLHVAVIHKDVEMVRLLRDAGADLDKPEPTCGRSPLHLAVEAQAADVLELLLRAGANPAARMYGGRTPLGSAMLRPNPILARLLRAHGAPEPEGEDEKSGPCSSSSDSDSGDEGDEYDDIVVHSSRSQTRLPPTPASKPLPDDPRPV
B11: NKX6-2 (protein, UniProt Q9C056 1-277, looked up)
Homeobox protein Nkx-6.2: MDTNRPGAFVLSSAPLAALHNMAEMKTSLFPYALQGPAGFKAPALGGLGAQLPLGTPHGISDILGRPVGAAGGGLLGGLPRLNGLASSAGVYFGPAAAVARGYPKPLAELPGRPPIFWPGVVQGAPWRDPRLAGPAPAGGVLDKDGKKKHSRPTFSGQQIFALEKTFEQTKYLAGPERARLAYSLGMTESQVKVWFQNRRTKWRKRHAVEMASAKKKQDSDAEKLKVGGSDAEDDDEYNRPLDPNSDDEKITRLLKKHKPSNLALVSPCGGGAGDAL
B12: NKX2-2 (protein, UniProt O95096 1-273, looked up)
Homeobox protein Nkx-2.2: MSLTNTKTGFSVKDILDLPDTNDEEGSVAEGPEEENEGPEPAKRAGPLGQGALDAVQSLPLKNPFYDSSDNPYTRWLASTEGLQYSLHGLAAGAPPQDSSSKSPEPSADESPDNDKETPGGGGDAGKKRKRRVLFSKAQTYELERRFRQQRYLSAPEREHLASLIRLTPTQVKIWFQNHRYKMKRARAEKGMEVTPLPSPRRVAVPVLVRDGKPCHALKAQDLAAATFQAGIPFSAYSAQSLQHMQYNAQYSSASTPQYPTAHPLVQAQQWTW
B13: NKX2-6 (protein, UniProt A6NCS4 1-301, looked up)
Homeobox protein Nkx-2.6: MLLSPVTSTPFSVKDILRLERERSCPAASPHPRVRKSPENFQYLRMDAEPRGSEVHNAGGGGGDRKLDGSEPPGGPCEAVLEMDAERMGEPQPGLNAASPLGGGTRVPERGVGNSGDSVRGGRSEQPKARQRRKPRVLFSQAQVLALERRFKQQRYLSAPEREHLASALQLTSTQVKIWFQNRRYKCKRQRQDKSLELAGHPLTPRRVAVPVLVRDGKPCLGPGPGAPAFPSPYSAAVSPYSCYGGYSGAPYGAGYGTCYAGAPSGPAPHTPLASAGFGHGGQNATPQGHLAATLQGVRAW

This experiment relates to HEK293FT cells transfected with TF library. In words: Screening of TF condensates based on fluorescent puncta. It counts as cell-based. The note with it: Figure 1B numerical data; TF library screen, one value per transcriptional factor. Put shortly:
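Condensate formation is scored as Alexa 488-labelled puncta after Flag- or GAL4-tag immunostaining of fixed HEK293FT cells expressing individual TFs, with a 12 h glucose-free or glucose-containing culture preceding fixation.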
Take B1: the “Z score of condensed fraction” value is on record as -0.2156.

Consider B2, for which the “Z score of condensed fraction” value stood at 0.298.

As to B3, the “Z score of condensed fraction” value is reported as -0.3246.

Consider B4, for which the “Z score of condensed fraction” value was -0.7003.

On to B5, for which the “Z score of condensed fraction” value came out at 0.04386.

Regarding B6, the “Z score of condensed fraction” value was -0.8733.

Consider B7, for which the “Z score of condensed fraction” value is given as 0.9401.

Turning to B8, the “Z score of condensed fraction” value was 0.001922.

Take B9: the “Z score of condensed fraction” value is reported as -0.6353.

Regarding B10, the “Z score of condensed fraction” value was determined as 1.097.

Regarding B11, the “Z score of condensed fraction” value is recorded as -0.6325.

For the molecule B12, the “Z score of condensed fraction” value is -0.1567.

For the molecule B13, the “Z score of condensed fraction” value was -0.7176.
